The assay has as its target T1, Smith-Magenis syndrome chromosome region, candidate 8 (SMCR8), wild type (human, UniProt Q8TEV9 1-937).
T1 sequence: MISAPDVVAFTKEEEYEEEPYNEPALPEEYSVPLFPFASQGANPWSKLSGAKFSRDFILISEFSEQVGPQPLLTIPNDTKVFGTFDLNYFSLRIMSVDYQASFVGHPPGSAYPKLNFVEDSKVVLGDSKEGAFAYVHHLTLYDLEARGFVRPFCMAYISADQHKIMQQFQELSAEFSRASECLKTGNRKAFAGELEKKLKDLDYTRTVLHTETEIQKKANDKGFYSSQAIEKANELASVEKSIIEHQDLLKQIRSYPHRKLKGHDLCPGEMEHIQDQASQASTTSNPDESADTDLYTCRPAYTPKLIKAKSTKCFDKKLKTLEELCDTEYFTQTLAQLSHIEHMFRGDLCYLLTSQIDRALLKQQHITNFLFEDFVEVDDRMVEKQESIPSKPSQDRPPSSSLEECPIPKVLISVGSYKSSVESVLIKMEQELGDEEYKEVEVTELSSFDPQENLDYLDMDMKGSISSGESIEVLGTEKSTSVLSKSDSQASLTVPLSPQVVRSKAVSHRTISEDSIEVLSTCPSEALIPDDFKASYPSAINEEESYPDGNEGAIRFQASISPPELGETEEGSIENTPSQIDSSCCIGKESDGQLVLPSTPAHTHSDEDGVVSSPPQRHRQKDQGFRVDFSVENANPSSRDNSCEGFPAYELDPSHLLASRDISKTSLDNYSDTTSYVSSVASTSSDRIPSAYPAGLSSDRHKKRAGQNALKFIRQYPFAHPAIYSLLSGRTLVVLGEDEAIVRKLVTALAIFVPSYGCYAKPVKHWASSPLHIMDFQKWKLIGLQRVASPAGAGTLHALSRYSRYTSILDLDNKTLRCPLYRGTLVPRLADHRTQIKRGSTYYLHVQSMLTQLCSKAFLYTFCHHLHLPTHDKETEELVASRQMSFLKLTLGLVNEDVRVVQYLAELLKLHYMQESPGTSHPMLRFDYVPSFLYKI
Kind of assay: cryo-EM structure.

B1: C9orf72, wild type, GST tag removed by TEV (in purified SCARF and L-SCARF) (natural protein)
chain: MSTLCPPPSPAVAKTEIALSGKSPLLAATFAYWDNILGPRVRHIWAPKTEQVLLSDGEITFLANHTLNGEILRNAESGAIDVKFFVLSEKGVIIVSLIFDGNWNGDRSTYGLSIILPQTELSFYLPLHRVCVDRLTHIIRKGRIWMHKERQENVQKIILEGTERMEDQGQSIIPMLTGEVIPVMELLSSMKSHSVPEEIDIADTVLNDDDIGDSCHEGFLLNAISSHLQTCGCSVVVGSSAEKVNKIVRTLCLFLTPAERKCSRLCEAESSFKYESGLFVQGLLKDSTGSFVLPFRQVMYAPYPTTHIDVDVNTVKQMPPCHEHIYNQRRYMRSELTAFWRATSEEDMAQDTIIYTDESFTPDLNIFQDVLHRDTLVKAFLDQVFQLKPGLSLRSTFLAQFLLVLHRKALTLIKYIEDDTQKGKKPFKSLRNLKIDLDLTAEGDLNIIMALAEKIKPGLHSFIFGRPFYTSVQERDVLMTF
Consider B1, for which the binding result is reported as “binds”.

B2: WD repeat-containing protein 41 (WDR41), wild type, without a tag (natural protein)
chain: MLRWLIGGGREPQGLAEKSPLQTIGEEQTQNPYTELLVLKAHHDIVRFLVQLDDYRFASAGDDGIVVVWNAQTGEKLLELNGHTQKITAIITFPSLESCEEKNQLILTASADRTVIVWDGDTTRQVQRISCFQSTVKCLTVLQRLDVWLSGGNDLCVWNRKLDLLCKTSHLSDTGISALVEIPKNCVVAAVGKELIIFRLVAPTEGSLEWDILEVKRLLDHQDNILSLINVNDLSFVTGSHVGELIIWDALDWTMQAYERNFWDPSPQLDTQQEIKLCQKSNDISIHHFTCDEENVFAAVGRGLYVYSLQMKRVIACQKTAHDSNVLHVARLPNRQLISCSEDGSVRIWELREKQQLAAEPVPTGFFNMWGFGRVSKQASQPVKKQQENATSCSLELIGDLIGHSSSVEMFLYFEDHGLVTCSADHLIILWKNGERESGLRSLRLFQKLEENGDLYLAV
Take B2: the binding result is recorded as “binds”.

For the origin of these results see paper doi:10.1101/2020.04.15.042515 (bioRxiv, 2020).
